Here are results for 8 molecules from PMC6303401, “A NAC transcription factor, NOR-like1, is a new positive regulator of tomato fruit ripening”.

This series addresses NOR-like1 (Solanum lycopersicum (cv. AC), UniProt K4CH25 1-329). Kind of series: EMSA; EMSA kit (Thermo Fisher), manufacturer's instructions; buffer, salt, pH and temperature not stated. The following applies: protein: recombinant; tags: GST; chain copies: 2; label: biotin; blunt.

Sequence of NOR-like1 (K4CH25 entry or part of it): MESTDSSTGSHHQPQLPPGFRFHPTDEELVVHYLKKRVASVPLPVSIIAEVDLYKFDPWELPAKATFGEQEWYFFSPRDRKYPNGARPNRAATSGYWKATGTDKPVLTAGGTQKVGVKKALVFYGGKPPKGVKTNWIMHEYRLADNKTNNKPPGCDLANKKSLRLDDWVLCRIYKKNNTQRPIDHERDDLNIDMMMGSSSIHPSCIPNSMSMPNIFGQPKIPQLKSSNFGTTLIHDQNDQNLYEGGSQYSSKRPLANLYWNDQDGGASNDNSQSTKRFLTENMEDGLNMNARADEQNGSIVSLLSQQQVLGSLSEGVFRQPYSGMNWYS

B1: SlEXP1 wild (dsDNA)
DNA 1: CTGAAATTTTAGCTAATTTTAACACGTATTCAATTTTGTATGATTGAATG
DNA 2: CATTCAATCATACAAAATTGAATACGTGTTAAAATTAGCTAAAATTTCAG
For the molecule B1, the binding result was “binds”.

B2: SlSGR1 wild (dsDNA)
DNA 1: TAAGCAGTTATGCGTGTGCTGAAGTTGTTATTTCAAACGTGAAAAGGAAA
DNA 2: TTTCCTTTTCACGTTTGAAATAACAACTTCAGCACACGCATAACTGCTTA
Regarding B2, the binding result was “binds”.

B3: SlPG2a wild (dsDNA)
DNA 1: TATTTTAAAAAATACACTTAAAAGCGTGACTAAATATAAATTGTTGCTCA
DNA 2: TGAGCAACAATTTATATTTAGTCACGCTTTTAAGTGTATTTTTTAAAATA
Take B3: the binding result was “binds”.

B4: SlACS2 wild (dsDNA)
DNA 1: AATAAATTCTTTTTGACAGGGTGGCGTAAAAATAATTTTATTTTAAAATA
DNA 2: TATTTTAAAATAAAATTATTTTTACGCCACCCTGTCAAAAAGAATTTATT
As to B4, the binding result was “binds”.

B5: SlCEL2 wild (dsDNA)
DNA 1: ATCCAATAGCATCCCACCACGTGTCGTAACAATATTGGTTTAACCCCAGG
DNA 2: CCTGGGGTTAAACCAATATTGTTACGACACGTGGTGGGATGCTATTGGAT
In the case of B5, the binding result is listed as “binds”.

B6: SlPL wild (dsDNA)
DNA 1: TATCAATAACAGATAGTAATTTTACGTAATGATATTGAACGATGTATATA
DNA 2: TATATACATCGTTCAATATCATTACGTAAAATTACTATCTGTTATTGATA
Turning to B6, the binding result is “binds”.

B7: SlGgpps2 wild (dsDNA)
DNA 1: TACGTTTAGGATAGGACTTCATTACGTGTCAAGGACAAAAATAAACCTAT
DNA 2: ATAGGTTTATTTTTGTCCTTGACACGTAATGAAGTCCTATCCTAAACGTA
Take B7: the binding result is “binds”.

B8: SlACS4 wild (dsDNA)
DNA 1: GTTTTAACTTTTTAAATATTTTGACGTAAGTTTTTTGTTTTCCCCCAAAA
DNA 2: TTTTGGGGGAAAACAAAAAACTTACGTCAAAATATTTAAAAAGTTAAAAC
Take B8: the binding result was “binds”.
